Values joined by “and” are separate entries in the source; they are usually repeats but may differ in a detail not shown here. Equal entries are not always repeated.

This experiment concerns the target GST-LEDGF PWWP (1–100) (UniProt O75475). Description: pull-down.

Sequence of GST-LEDGF PWWP (1–100) (O75475 1-100): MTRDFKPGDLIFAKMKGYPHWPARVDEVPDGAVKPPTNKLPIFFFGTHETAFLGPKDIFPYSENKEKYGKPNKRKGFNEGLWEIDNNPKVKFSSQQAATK

Turning to “native mononucleosomes (MNs) from SupT1 cells (from UniProt P0C0S8;P62807;P68431;P62805) (complex)”, the Kd is 232 nM and 102 nM.

The record behind these values is PMC3616739.
